Results published in US20250076311A1 (Chugai, published 2025).
Numbering of substitutions follows the chain as printed. Names and notes keep the numbering of the source. Where two headings read alike, the source gives them in different places.

How the values were obtained:
[1] = biological target: T1, cynomolgus monkey FcγRIIIaS extracellular domain with C-terminal His-tag (cynomolgus monkey, UniProt Q8SPW2 21-206 at identity 1.00)); assay: SPR, KD(SG1)/KD(variant)
T1 construct: also called cyno FcgRIIIaS; cynoFcγRIIIaS
T1 chain: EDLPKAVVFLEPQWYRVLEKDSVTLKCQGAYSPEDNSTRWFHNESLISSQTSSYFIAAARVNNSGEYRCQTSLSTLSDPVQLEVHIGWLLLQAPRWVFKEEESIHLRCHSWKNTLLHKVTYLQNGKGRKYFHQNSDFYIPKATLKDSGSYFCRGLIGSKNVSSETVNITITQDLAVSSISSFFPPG

[2] = biological target: T2, human FcγRIIaH extracellular domain with C-terminal His-tag (human, UniProt P12318 34-217); assay: SPR, KD(SG1)/KD(variant)
T2 construct: also called human FcgRIIaH; FcγRIIa (type H)
T2 sequence: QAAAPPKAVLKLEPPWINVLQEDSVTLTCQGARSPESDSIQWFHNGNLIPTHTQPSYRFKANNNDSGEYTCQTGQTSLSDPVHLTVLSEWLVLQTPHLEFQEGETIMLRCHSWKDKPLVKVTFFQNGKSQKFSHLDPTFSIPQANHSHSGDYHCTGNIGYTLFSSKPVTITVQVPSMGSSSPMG

[3] = biological target: T3, cynomolgus monkey FcγRIIb extracellular domain with C-terminal His-tag (cynomolgus monkey); assay: SPR (Biacore), KD of SG1 divided by KD of variant
T3 construct: also called cyno FcgRIIb; cynoFcγRIIb
T3 chain: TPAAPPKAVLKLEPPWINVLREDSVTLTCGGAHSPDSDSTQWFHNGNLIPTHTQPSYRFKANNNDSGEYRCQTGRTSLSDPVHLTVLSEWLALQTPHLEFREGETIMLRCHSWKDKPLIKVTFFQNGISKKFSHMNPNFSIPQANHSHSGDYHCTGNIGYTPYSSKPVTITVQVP

[4] = biological target: T4, human FcγRIIaH extracellular domain with C-terminal His-tag (human, UniProt P12318 34-217); assay: SPR (Biacore), KD of SG1 divided by KD of variant
T4 construct: also called human FcgRIIaH; FcγRIIa (type H)
T4 sequence: T2 sequence

[5] = biological target: T5, human FcγRIIaR extracellular domain with C-terminal His-tag (human, UniProt P12318 34-217); assay: SPR (Biacore), KD of SG1 divided by KD of variant
T5 construct: also called human FcgRIIaR; FcγRIIa (type R)
T5 chain: T2 sequence with H134R

[6] = biological target: T6, human FcγRIIb extracellular domain with C-terminal His-tag (human, UniProt P31994 43-217); assay: SPR (Biacore), KD of SG1 divided by KD of variant
T6 construct: also called human FcgRIIb
T6 sequence: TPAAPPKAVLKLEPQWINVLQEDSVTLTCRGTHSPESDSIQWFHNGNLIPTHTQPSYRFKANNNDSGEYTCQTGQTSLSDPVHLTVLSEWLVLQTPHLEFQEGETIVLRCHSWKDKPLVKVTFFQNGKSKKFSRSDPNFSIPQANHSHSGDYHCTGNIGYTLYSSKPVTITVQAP

[7] = biological target: T7, cynomolgus monkey FcγRIIa2 extracellular domain with C-terminal His-tag (cynomolgus monkey); assay: SPR (Biacore), antibody captured, FcgR as analyte
T7 construct: also called cyno FcgRIIa2; cynoFcγRIIa2
T7 chain: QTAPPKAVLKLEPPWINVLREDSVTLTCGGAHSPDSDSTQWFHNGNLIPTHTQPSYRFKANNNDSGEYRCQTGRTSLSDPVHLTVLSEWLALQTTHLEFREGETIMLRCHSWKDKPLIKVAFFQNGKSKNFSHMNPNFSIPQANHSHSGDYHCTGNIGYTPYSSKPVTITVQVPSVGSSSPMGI

[8] = biological target: T4, human FcγRIIaH extracellular domain …; assay: SPR (Biacore), antibody captured, FcgR as analyte
[9] = biological target: T8, cynomolgus monkey FcγRIIa1 extracellular domain with C-terminal His-tag (cynomolgus monkey); assay: SPR, KD(SG1)/KD(variant)
T8 construct: also called cyno FcgRIIa1; cynoFcγRIIa1
T8 chain: T7 chain with T95P, A121T, K127I, S128A, N130K, N135D, Q142R
Experimental: (§1) The kinetic analysis of interactions between these antibodies and FcγR was carried out using BIACORE® T200 or BIACORE® 4000 (GE Healthcare). HBS-EP+ (GE Healthcare) was used as the running buffer, and the measurement temperature was set to 25° C. […] After the measurement, the antibody captured on the chip was washed off by allowing reaction with 10 mM glycine-HCl, pH1.5 and 25 mM NaOH so that the chip was regenerated and used repeatedly. The sensorgrams obtained as measurement results were analyzed by the 1:1 Langmuir binding model using the BIACORE® Evaluation Software to calculate the binding rate constant ka (L/mol/s) and dissociation rate constant kd (1/s), and the dissociation constant KD (mol/L) was calculated from these values. […] Regarding such interactions, KD values were calculated using the following 1:1 binding model described in BIACORE® T100 Software Handbook BR1006-48 Edition AE.

[10] = biological target: T9, cynomolgus monkey FcγRIIa2 extracellular domain with C-terminal His-tag (cynomolgus monkey); assay: SPR, KD(SG1)/KD(variant)
T9 construct: also called cyno FcgRIIa2; cynoFcγRIIa2
T9 chain: T7 chain
Experimental: as §1

[11] = biological target: T10, cynomolgus monkey FcγRIIa3 extracellular domain with C-terminal His-tag (cynomolgus monkey); assay: SPR, KD(SG1)/KD(variant)
T10 construct: also called cyno FcgRIIa3; cynoFcγRIIa3
T10 chain: T7 chain with K127I, N130K, H133P, Q142R
Experimental: as §1

[12] = biological target: T1, cynomolgus monkey FcγRIIIaS …; assay: SPR, KD(SG1)/KD(variant)
Experimental: as §1

[13] = biological target: T10, cynomolgus monkey FcγRIIa3 …; assay: SPR, antibody captured, FcγR analyte
[14] = biological target: T11, cynomolgus monkey FcγRIIb extracellular domain with C-terminal His-tag (cynomolgus monkey); assay: SPR, antibody captured, FcγR analyte
T11 construct: also called cyno FcgRIIb; cynoFcγRIIb
T11 chain: T3 chain

[15] = biological target: T1, cynomolgus monkey FcγRIIIaS …; assay: SPR, antibody captured, FcγR analyte
[16] = biological target: T12, cynomolgus monkey FcγRIIa3 extracellular domain with C-terminal His-tag (cynomolgus monkey); assay: SPR (Biacore), antibody captured, FcgR as analyte
T12 construct: also called cyno FcgRIIa3; cynoFcγRIIa3
T12 chain: T7 chain with K127I, N130K, H133P, Q142R

[17] = biological target: T5, human FcγRIIaR extracellular domain …; assay: SPR (Biacore), antibody captured, FcgR as analyte
[18] = biological target: T7, cynomolgus monkey FcγRIIa2 …; assay: SPR (Biacore), KD of SG1 divided by KD of variant
[19] = biological target: T6, human FcγRIIb extracellular domain with …; assay: SPR (Biacore), antibody captured, FcgR as analyte
[20] = biological target: T10, cynomolgus monkey FcγRIIa3 …; assay: SPR, KD(SG1)/KD(variant)
Experimental: as §1

[21] = biological target: T11, cynomolgus monkey FcγRIIb extracellular …; assay: SPR, KD(SG1)/KD(variant)
Experimental: as §1

[22] = biological target: T13, cynomolgus monkey FcγRIIa1 extracellular domain with C-terminal His-tag (cynomolgus monkey); assay: SPR (Biacore), antibody captured, FcgR as analyte
T13 construct: also called cyno FcgRIIa1; cynoFcγRIIa1
T13 chain: T7 chain with T95P, A121T, K127I, S128A, N130K, N135D, Q142R

[23] = biological target: T14, cynomolgus monkey FcγRIIIaS extracellular domain with C-terminal His-tag (cynomolgus monkey, UniProt Q8SPW2 21-206 at identity 1.00)); assay: SPR (Biacore), antibody captured, FcgR as analyte
T14 construct: also called cyno FcgRIIIaS; cynoFcγRIIIaS
T14 chain: T1 chain

B1: M103205H795-MY535/M103202L889-SK1 (antibody, human IgG1, kappa, name in EU numbering)
heavy: QVTLKESGPVLVKPTETLTLTCTVSGIDLSHDDISWVRQAPGKGLEWVGIISYAGSTYYASWAKGRLTISKDTSKNQVVLTMTNMDPVDTATYYCARGVPAYSHGGDLWGQGTLVTVSSASTKGPSVFPLAPSSKSTSGGTAALGCLVKDYFPEPVTVSWNSGALTSGVHTFPAVLQSSGLYSLSSVVTVPSSSLGTQTYICNVNHKPSNTKVDKKVEPKSCDKTHTCPPCPGPEWLTGPSVFLFPPKPKDTLMISRTPEVTCVVVDVSDEDPEVKFNWYVDGVEVHNAKTKPREEQYNSTYRVVSVLTVLHQDWLNGKEYKCKVSNKALPKPIEKTISKAKGQPREPQVYTLPPSREEMTKNQVSLTCLVKGFYPSDIAVEWESNGQPENNYKTTPPVLDSDGSFFLYSKLTVDKSRWQQGNVFSCSVMHEALHNHYTQKSLSLSP
light: DIVMTQSPATLSLSPGERATLSCTSSQSVYHANWLSWFQQKPGQPPKLLIYWASTLAYGVPSRFSGSGSGTDFTLTISSLQPEDAATYYCAGGYGGGRYAFGQGTKVEIKRTVAAPSVFIFPPSDEQLKSGTASVVCLLNNFYPREAKVQWKVDNALQSGNSQESVTEQDSKDSTYSLSSTLTLSKADYEKHKVYACEVTHQGLSSPVTKSFNRGEC
notes: copies: 2 + 2
- KD fold (SG1 = 1) [1]: 0.17 fold
- KD fold (SG1 = 1) [2]: 1.8 fold

B2: M103205H795-MY387 / M103202L889-SK1 (antibody, human IgG1, kappa, name in EU numbering)
heavy: B1 heavy with G233A, W236L, S241V
light: B1 light
- KD fold (SG1 = 1) [3]: 2.7 fold
- KD fold (SG1 = 1) [4]: 2.9 fold
- KD fold (SG1 = 1) [5]: 5.5 fold
- KD fold (SG1 = 1) [6]: 2.9 fold
- Kd [7]: 1900 nM
- Kd [8]: 240 nM

B3: MS1032LO06-PK56 (antibody, human IgG1, kappa)
heavy: B1 heavy with G233A, W236L, T238N, Q313R, P345R, D415R
light: B1 light
notes: MY201 with Q311R/P343R/D413R; also called MS103205H795-PK56; M103205H795-MY56
- KD fold (SG1 = 1) [9]: 2.5 fold
- KD fold (SG1 = 1) [10]: 3.9 fold
- KD fold (SG1 = 1) [11]: 2.5 fold
- KD fold (SG1 = 1) [12]: 0.08 fold
- Kd [13]: 3500 nM
- Kd [14]: 550 nM
- Kd [15]: 4400 nM

B4: M103205H795-MY339 / M103202L889-SK1 (antibody, human IgG1, kappa, name in EU numbering)
heavy: B1 heavy with G233A, W236L, T238L, K328T, P398K
light: B1 light
- KD fold (SG1 = 1) [6]: 1.6 fold
- Kd [16]: 9800 nM
- Kd [17]: 630 nM

B5: M103205H795-MY534 / M103202L889-SK1 (antibody, human IgG1, kappa, name in EU numbering)
heavy: B1 heavy with G233A, W236L, S241V, Q297L
light: B1 light
- KD fold (SG1 = 1) [18]: 3.5 fold
- Kd [19]: 1200 nM

B6: MS1032LO06-MY205 (antibody, human IgG1, kappa)
heavy: B1 heavy with G233A, W236L, T238N, Q297L
light: B1 light
notes: also called M103205H795-MY205; copies: 2 + 2
- KD fold (SG1 = 1) [20]: 5.2 fold

B7: MS1032LO06-MY201 (antibody, human IgG1, kappa)
heavy: B1 heavy with G233A, W236L, T238N
light: B1 light
notes: also called M103205H795-MY201; copies: 2 + 2
- KD fold (SG1 = 1) [11]: 4.5 fold
- KD fold (SG1 = 1) [21]: 5 fold
- KD fold (SG1 = 1) [12]: 0.08 fold
- Kd [15]: 3700 nM

B8: M103205H795-MY526 / M103202L889-SK1 (antibody, human IgG1, kappa, name in EU numbering)
heavy: B1 heavy with G233T, W236L, S241V, Q297L
light: B1 light
- Kd [22]: 1300 nM
- Kd [23]: 1600 nM
